± gives the uncertainty stated by the source.
Experiment: amyloid nucleation score (Sup35N fusion, yeast selection) (log enrichment); library NNK2; higher = more nucleation; inactive = no reads after selection
Procedure, shortened: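 Nucleation score: DiMSum log enrichment of output over input reads, centred on the mode score of non-aggregating sequences. Only sequences with at least 100 input reads were kept. Reads came from Illumina sequencing of plasmid inserts before and after 7 days of growth at 30°C without adenine and uracil, in psi-negative yeast expressing Sup35N fused to peptides of 20 random codons after 24 hours of induction with 100 μM copper sulfate.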

Row | Substance | amyloid nucleation score
1 | GGSGSDYLSPSGIVEGYRLG | -0.663 ± 0.54
2 | GLVVTSNPSDMSVMELCLWF | -0.347 ± 0.3
3 | QFIEMEKIDVVFQEYIGEEG | -0.265 ± 0.41
4 | VICEIMYNKMCDTSLRSSLS | 0.329 ± 0.65
5 | VYENKIA | 0.313 ± 0.47
6 | NYLASGQIIWLGYPSRSLSL | inactive
7 | LLSNFGHVRNSSDKLLLFWS | 2.9 ± 0.18
8 | ARRIVMWVYECGTYCWRRTT | 0.216 ± 0.43
9 | IRCVNIKSLP | -1.24 ± 1.1
10 | WLRVTRLEIWQGKFSTNELT | -0.755 ± 1.1
11 | TSPSKLFRDLFYHPRSKPVA | 0.708 ± 0.41
12 | FVVWWFLKEMRDSAGKGDEF | -0.49 ± 0.34
13 | TQLLQHGGGFRSRISSRLGR | 1.21 ± 0.41
14 | QYVSMKMNLRTR | -0.403 ± 1
15 | TEAFKGLSLS | 0.184 ± 0.49
16 | ALHFPVIQHFW | 5.22 ± 0.073
17 | LWYSL | -0.558 ± 0.5
18 | VFLYNIGFK | 0.691 ± 0.38
19 | KTYEMTDQVIRKPYPL | 0.347 ± 0.25
20 | HEESDGPNERTILVCSICVI | 0.487 ± 0.28
21 | EYRVYYSRLRSLSTEEPMAS | -0.299 ± 0.79
22 | SGVFAFTKLLNTIEGDFCHR | -0.721 ± 0.64
23 | PLNGIRFWSDVNLSRDGSSM | -0.025 ± 1.1
24 | FNTSTAFESTDVKSKVM | -1.22 ± 1.1
25 | LHSSSHVGGYSVGSRSFIHG | 0.294 ± 1.1

Row | Substance | amyloid nucleation score
26 | CVFPRFYIHDFSTLGTMYTL | 4.24 ± 0.12
27 | LGYCGM | inactive
28 | VDILG | -0.094 ± 1
29 | INEFCATLQERRMCYLRMKL | 0.921 ± 0.74
30 | GGDVNGVSCYGGDVGLSAKG | 0.616 ± 0.25
31 | YYTWDFWDIFRGWYRRDGIC | inactive
32 | EYAYILELFYQCFVMPYTLV | 0.392 ± 0.51
33 | CSALLYW | 1.29 ± 0.61
34 | TCGTVSNSRASRQFESSSNA | 0.633 ± 0.18
35 | LSCCYDDHRLQGRCGSGRFH | 0.946 ± 0.27
36 | NNSAECRMSIKRSACGLQIA | 0.961 ± 0.37
37 | NVHYLGLVCRCALVFGTNML | inactive
38 | HYYSIDEASRYKMDLNLSLL | 2.91 ± 0.099
39 | DSNTSSDILGLSYLYGRTRL | 0.168 ± 0.37
40 | CPIRMLSKNGCSTHSFNMAW | 0.241 ± 0.8
41 | SFVVRTQMSGCANSFDEKFN | -0.479 ± 1
42 | YDKFPRNVGESYEHRCSWSE | 0.458 ± 0.8
43 | ALLTVFFNLVVVWDVKAVTP | -0.159 ± 1
44 | CVLMAMNFRCLNSTETTLLG | inactive
45 | MHMAYSLNMSHSHIRAKAGM | 1.06 ± 0.27
46 | STELFLS | -0.251 ± 0.28
47 | CLTTGNLWEVTAGIESVRWI | 0.202 ± 0.5
48 | GSSNGRALLYCITLKIMGIV | 0.769 ± 0.4
49 | TIIRRDSLESQRRHCPMVVV | 0.351 ± 0.64
50 | YKRHVGLRRNTLRQGYLLWF | -0.547 ± 1.1

Row | Substance | amyloid nucleation score
51 | CWKVREENRVVRCTHSYFLE | -1.03 ± 0.55
52 | KRSLNLLKGLIYL | -1.05 ± 1.1
53 | NCRRMFGYNHCSHLCPLRVW | -0.653 ± 1.1
54 | SCNDANILSMSVVWVLRTGE | 3.12 ± 0.13
55 | MVLYKSRNRLSNYHRLAEST | -0.326 ± 1.1
56 | MYVRYANDFVLLIMQVYRCF | -0.488 ± 1
57 | RPDQTRF | -0.022 ± 0.5
58 | VWSNLSVRLRHI | -0.196 ± 1
59 | LTHIKDRVELLLGGQFISDT | 0.011 ± 1.1
60 | WSFDIAVTAR | inactive
61 | SFVIIVLDDLCSCAN | 1.62 ± 0.13
62 | GASLLFALSLSYKFHQYLVD | -1.44 ± 0.49
63 | SSDATCGVDGHFRLLITHCG | 5.9 ± 0.075
64 | DENFHAEGWRCFVYPFY | -0.373 ± 0.27
65 | YIFFSEKISTMSYSDKLRMA | 5.89 ± 0.083
66 | SKMSYAYFLSLTMRCVADSM | 3.35 ± 0.06
67 | LANRPCWFLQRARAMV | 0.959 ± 0.74
68 | CEIHYIIRQRSPVLSNRVQR | inactive
69 | WQIRWVYVSIWSQFAQTRGV | 0.462 ± 0.29
70 | YNVTTMYNYYLICISLATMY | 7.09 ± 0.08
71 | AALCGLKFVRERKWRKSILS | 0.345 ± 0.65
72 | LLMRVFRGESR | -1.02 ± 0.49
73 | IRLARISWRSRHYSTHSGVS | -0.076 ± 0.31
74 | YVYKCLQSQFFNALVTMISL | inactive
75 | EGTTKFDWHYYQVSTGNFAS | 1.05 ± 0.51

Row | Substance | amyloid nucleation score
76 | RCIIIAM | 2.88 ± 0.12
77 | ANKLLESCFSQCLRSALFEW | -0.369 ± 0.79
78 | TYLFYWSLGQRCMIF | inactive
79 | PSVVVSNTYIGSPGYKRIWF | 7.844 ± 0.071
80 | NRYVEVCPFLMGTVVGLWLR | 0.851 ± 0.8
81 | QPILSNLLNHLYTNILSSTL | -0.936 ± 0.64
82 | WLSSGAVRVKGCGFYNSRYN | inactive
83 | GNADRF | -1.12 ± 0.63
84 | FCMRNGVYLEYFVGLMLFCA | -0.566 ± 0.63
85 | NLHATWTLDESDFLYQPCLS | 0.102 ± 0.2
86 | ALGHR | -0.079 ± 0.45
87 | NVSVNAEVN | -0.955 ± 0.54
88 | SFNYP | inactive
89 | YLGNLSPQRLRCFISLWIVQ | -1.49 ± 1.1
90 | YTDIHESL | inactive
91 | WGCHRLEATVLLCVRVCIDC | -0.263 ± 1.1
92 | GGLDLRIMR | 2.41 ± 0.081
93 | IMLAVYPIIEGFIVDNMHRI | -1.25 ± 1.1
94 | YLSLNGVHYCIGSITIPSQR | 8.06 ± 0.083
95 | FNRPAQNGLAKYWYWIQ | 0.142 ± 0.42
96 | GRVVSSFSLKSDNFMMYFRI | -1.18 ± 1.1
97 | YSDISQTRSASAIALGECRG | -0.879 ± 0.64
98 | SRLSLIFDSIYLCS | 2.97 ± 0.15
99 | SGIVG | 0.791 ± 0.57
100 | FGDLGLIVRDSKSLLGSIKQ | 0.053 ± 0.79

Row | Substance | amyloid nucleation score
101 | NERRT | 0.995 ± 0.53
102 | TWRIYLTQRAVTSKMYLRAS | 4.74 ± 0.07
103 | SGGRYTEATWECG | 0.316 ± 0.65
104 | VRKSFLCCKQMGLLF | -1.14 ± 0.64
105 | IFYWLIHHRLMYDFFCRVLT | -0.995 ± 0.76
106 | QRYGVFAYGRLIRIHCRRLG | 0.159 ± 0.29
107 | VCSKHD | -0.78 ± 1.1
108 | NRAVGNEAYCRSGWSGFHSL | -0.459 ± 1.1
109 | KVFLWIMLWAMPHTSSGFKP | -0.305 ± 0.48
110 | FIVYKVPFRV | -0.934 ± 0.78
111 | RNGCLTIEW | 1.78 ± 0.12
112 | MKNFNVYSTYWLCMGEYGCL | 6.34 ± 0.078
113 | NIDSVLRNYSCDHRKYHSLE | -0.305 ± 1
114 | HRTMHRTHSICGGVDQRELL | -0.538 ± 0.48
115 | TYQMWLDTE | -0.445 ± 0.39
116 | TGKYICRW | -0.843 ± 0.38
117 | TDLTQF | -0.375 ± 1.1
118 | INNDTVMVVHRRIHLLYYLM | inactive
119 | LMYFMNGL | 0.045 ± 0.63
120 | RIWMLY | 0.42 ± 0.66
121 | SAATPCVY | 0.778 ± 0.25
122 | GRFLLSLATVSGLCTSRLEI | -0.169 ± 0.39
123 | YSLLILAPDFLNRHSSLGCI | -0.226 ± 1.1
124 | FLGDFRVCLF | inactive
125 | MMSGCGFSLKACLKEWRGGL | 7.572 ± 0.036

Row | Substance | amyloid nucleation score
126 | TAQILLSTGSVLHLMLGGSP | 3.02 ± 0.088
127 | VTIEFATHLWGVMY | 4.78 ± 0.072
128 | LMATHQPGTFMAGCTTGSEH | 0.914 ± 0.18
129 | NDSNIRINNFFGNFTFGREL | 7.485 ± 0.041
130 | IFVFSWRIRMWLLKSLTCG | -0.904 ± 0.78
131 | NDGVWKLFPLYLTPRSTFLL | 0.895 ± 0.81
132 | FIILYGSGMRLNFQGI | 0.968 ± 0.23
133 | LLQILTNQKVNGTCSQRF | -1.48 ± 0.78
134 | WYDSIMT | -0.084 ± 0.35
135 | LAQNEHTLVFILLTNGKS | 3.18 ± 0.046
136 | HPFSSRSS | -0.018 ± 1.1
137 | ELAMNIMMAFYYVCSIISTE | inactive
138 | YIRLATYSLYALDWAVRKNR | -0.548 ± 1.1
139 | QGDWVEGV | 0.144 ± 0.79
140 | TFIFWGTAELVNNNLGLRC | -0.479 ± 0.48
141 | WMGNLLGVRFMIKMIGYRAL | inactive
142 | YIIGNVRNVRLWFRLSMNEV | inactive
143 | AVLCWLCLLGGLNINFEECG | 4.11 ± 0.045
144 | QSRCGYMGNRH | 0.166 ± 0.76
145 | IVLAYSKTPREVN | -0.086 ± 0.65
146 | FDTRLSNFFPF | -0.636 ± 0.76
147 | ACWKRMN | inactive
148 | SGAVHFQRRASCEGQDMLCW | -0.028 ± 0.26
149 | RVRLTRSSSCPNSVSFCGVA | 1.29 ± 0.24
150 | NVDRFKVINLS | inactive

Row | Substance | amyloid nucleation score
151 | CFTPFMLFCKDEV | -1.12 ± 0.55
152 | VWWGSMHAVC | 0.652 ± 0.31
153 | LRFLVGVHAAYYIHTS | -0.649 ± 0.79
154 | IIWVHSTIPSRVNR | -0.183 ± 1
155 | TCIFVNDFSMSGWDCMLFY | 4.4 ± 0.062
156 | WVGHFIDISDATGRPWHMKA | -0.107 ± 0.53
157 | MHWFPPYDWK | 0.266 ± 1
158 | GSYSNAIFIHKLKNKHCFQS | inactive
159 | WIQKPGLFASNGATATGGHV | 0.395 ± 0.56
160 | YLGWVVCFRHCLIGH | 0.145 ± 0.56
161 | GLSNFYVFAFYRVFFSLIWA | 3.3 ± 0.067
162 | GMSERRWSCQLVGAVHDMAA | 1.17 ± 0.14
163 | FSFTYQRFSDITCQSTLGLV | -0.705 ± 0.26
164 | RIKRETHAAFNVYSIYAVRY | 0.183 ± 0.3
165 | YITLQLVASRRRS | 6.186 ± 0.045
166 | TSIIVTMLDPYWVISNSCAH | 5.701 ± 0.038
167 | NNKYWWDVLYYNSTLLARVN | -0.225 ± 0.48
168 | LYDYYQICINGGRVFSDFPC | -0.474 ± 0.79
169 | NWPGCVHNTVISDLGRVHCM | -0.853 ± 0.56
170 | CWRRDNNRGCARRSGVAPAK | 0.495 ± 0.24
171 | CWLEKLGGSRCFNFNDNKLP | -1.19 ± 0.75
172 | LSSWS | -0.611 ± 0.44

— the supplement of paper PMC12042874
